Results published in patent US20260022175A1 (Chugai, published 2026).
Numbering of substitutions follows the chain as printed. Blank lines part the entries; values can stand above or below the binder they belong to.

Tests used:
[1] = target: T1, human CTLA4 (human); assay: SPR Biacore T200, 37C, antibody captured, ATP 1 uM
T1 construct: also called hCTLA4; hCTLA4-His-BAP

[2] = target: T2, cynomolgus monkey CTLA4 (CyCTLA4-His-BAP) (cynomolgus monkey); assay: SPR Biacore T200, 37C, antibody captured, ATP 100 uM
T2 sequence (chain, as listed by the source limits assumed): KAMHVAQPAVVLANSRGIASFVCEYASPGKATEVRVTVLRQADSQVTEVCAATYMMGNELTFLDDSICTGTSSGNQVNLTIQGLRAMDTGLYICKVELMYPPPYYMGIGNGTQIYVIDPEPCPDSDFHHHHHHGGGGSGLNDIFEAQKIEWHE
Method: (§1) Biacore T200 was used to measure the binding of the generated antibodies to human CTLA4. 20 mM ACES (pH 7.4), 150 mM NaCl, 2 mM MgCl₂, 0.05% Tween 20 with ATP added to the desired concentration was used as the running buffer, and the assay was performed at 37° C. First, Protein G (CALBIOCHEM) was immobilized onto a Series S Sensor Chip CM3 (GE Healthcare), and the antibodies were captured by interacting an antibody solution prepared in an ATP-free running buffer with the chip. Next, by interacting with a human CTLA4 solution prepared in a running buffer containing ATP to the desired concentration, or a human CTLA4 solution prepared in a running buffer containing no ATP, the binding ability of the antibody to human CTLA4 in the presence or absence of ATP was evaluated. Chips were regenerated with 25 mM NaOH and 10 mM Glycine-HCl (pH 1.5), and assay was performed by repeatedly capturing antibodies. The dissociation constant of each antibody for CTLA4 was calculated using Biacore T200 Evaluation Software 2.0. Specifically, the binding rate constant ka (L/mol/s) and the dissociation rate constant kd (1/s) were calculated by global fitting of the sensorgrams obtained by the measurement, using a 1:1 Langmuir binding model. The dissociation constant KD (mol/L) was calculated from those values. Alternatively, the dissociation constant KD (mol/L) was calculated by the steady state model. In addition, the binding amount of CTLA4 per unit amount of antibody was calculated by correcting the amount of CTLA4 bound as calculated from the sensorgram obtained by the assay with the amount of antibody captured onto the chip surface.
(§2) Next, the binding ability of some variants to mouse CTLA4 and cynomolgus monkey CTLA4 was evaluated.

[3] = target: T1, human CTLA4; assay: as above
Method: as §1, §2

[4] = target: T3, mouse CTLA4 extracellular region linked with a His-tag (mCTLA4-His) (mouse, UniProt P09793 36-161); assay: as above
Method: as §1, §2

[5] = target: T1, human CTLA4; assay: SPR Biacore T200, 37C, antibody captured, ATP 10 uM
Method: as §1

[6] = target: T1, human CTLA4; assay: as above; remark: listed apart in the source
Method: as §1
(§3) The binding ability of the generated variants to human CTLA4 in the presence of ADP or AMP was evaluated by Biacore T200 and compared with the binding ability in the presence of ATP.

[7] = target: T1, human CTLA4; assay: SPR Biacore T200, 37C, antibody captured, ADP 10 uM;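 also: antibodies held on a Protein G CM3 chip, human CTLA4 as analyte in ACES pH 7.4 buffer, rates from a global 1:1 Langmuir fit, Kd from rates or steady state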
[8] = target: T2, cynomolgus monkey CTLA4 …; assay: SPR Biacore T200, 37C, antibody captured, ATP 1 uM
Method: as §1, §2

[9] = target: T1, human CTLA4; assay: SPR Biacore T200, 37C, antibody captured, ATP 1 uM; remark: listed apart in the source
Method: as §1, §2

[10] = target: T3, mouse CTLA4 extracellular region linked …; assay: SPR Biacore T200, 37C, antibody captured, ATP 1 uM
Method: as §1, §2

[11] = target: T1, human CTLA4; assay: SPR Biacore T200, 37C, antibody captured, AMP 10 uM
Method: as §1, §3

[12] = target: T1, human CTLA4; assay: SPR Biacore T200, 37C, antibody captured, no ATP, steady state model
Method: Biacore T200 was used to measure the binding of the generated antibodies to human CTLA4. 20 mM ACES (pH 7.4), 150 mM NaCl, 2 mM MgCl₂, 0.05% Tween 20 with ATP added to the desired concentration was used as the running buffer, and the assay was performed at 37° C. First, Protein G (CALBIOCHEM) was immobilized onto a Series S Sensor Chip CM3 (GE Healthcare), and the antibodies were captured by interacting an antibody solution prepared in an ATP-free running buffer with the chip. Next, by interacting with a human CTLA4 solution prepared in a running buffer containing ATP to the desired concentration, or a human CTLA4 solution prepared in a running buffer containing no ATP, the binding ability of the antibody to human CTLA4 in the presence or absence of ATP was evaluated. Chips were regenerated with 25 mM NaOH and 10 mM Glycine-HCl (pH 1.5), and assay was performed by repeatedly capturing antibodies. The dissociation constant of each antibody for CTLA4 was calculated using Biacore T200 Evaluation Software 2.0. Specifically, the binding rate constant ka (L/mol/s) and the dissociation rate constant kd (1/s) were calculated by global fitting of the sensorgrams obtained by the measurement, using a 1:1 Langmuir binding model. The dissociation constant KD (mol/L) was calculated from those values. Alternatively, the dissociation constant KD (mol/L) was calculated by the steady state model.

[13] = target: T2, cynomolgus monkey CTLA4 …; assay: SPR Biacore T200, 37C, antibody captured, ATP 10 uM
[14] = target: T1, human CTLA4; assay: as above; remark: listed apart in the source
[15] = target: T3, mouse CTLA4 extracellular region linked …; assay: as above
[16] = target: T1, human CTLA4; assay: SPR, 37C, antibody captured by anti-mouse IgG, ATP 100 uM
Method: (§4) 20 mM ACES (pH 7.4), 150 mM NaCl, 2 mM MgCl₂, 0.05% Tween 20 with ATP added to the desired concentrations was used as the running buffer, and the assay was performed at 37° C. First, Rabbit Anti-Mouse IgG (Thermo Fisher Scientific) was immobilized onto Series S Sensor Chips CM5 (GE Healthcare), and the antibody was captured onto the chip by interacting an antibody solution prepared in an ATP-free running buffer. Next, the binding ability of the antibody to human CTLA4 in the presence or absence of ATP was evaluated by interacting with a human CTLA4 solution prepared in a running buffer with ATP added to the desired concentration, or a human CTLA4 solution prepared in an ATP-free running buffer. Chips were regenerated with 25 mM NaOH and 10 mM Glycine-HCl (pH 1.5) and assay was performed by repeatedly capturing antibodies. The dissociation constant of each antibody for CTLA4 was calculated using Biacore T200 Evaluation Software 2.0. Specifically, the binding rate constant ka (L/mol/s) and the dissociation rate constant kd (1/s) were calculated by global fitting of the sensorgrams obtained by the measurement using the 1:1 Langmuir binding model, and the dissociation constant KD (mol/L) was calculated from those values.

[17] = target: T1, human CTLA4; assay: SPR, 37C, antibody captured by anti-mouse IgG, ATP 10 uM
Method: as §4

[18] = target: T1, human CTLA4; assay: SPR, 37C, antibody captured by anti-mouse IgG, ATP 1 uM
Method: as §4

[19] = target: T4, human C1q protein (Calbiochem) (human, UniProt P02745 23-245; P02746 28-253; P02747 29-245); assay: ELISA, antibody on the plate, hC1q 3 µg/mL
T4 construct: bought; also called hC1q
T4 sequence (P02745 23-245 limits assumed, chain 1 of 3): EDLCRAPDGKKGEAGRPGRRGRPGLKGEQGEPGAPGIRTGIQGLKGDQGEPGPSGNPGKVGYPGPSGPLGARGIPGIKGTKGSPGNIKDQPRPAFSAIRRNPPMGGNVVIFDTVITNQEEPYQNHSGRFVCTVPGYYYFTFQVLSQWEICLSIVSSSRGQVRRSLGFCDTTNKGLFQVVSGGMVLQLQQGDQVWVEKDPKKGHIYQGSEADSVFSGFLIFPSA
T4 sequence (P02746 28-253 limits assumed, chain 2 of 3): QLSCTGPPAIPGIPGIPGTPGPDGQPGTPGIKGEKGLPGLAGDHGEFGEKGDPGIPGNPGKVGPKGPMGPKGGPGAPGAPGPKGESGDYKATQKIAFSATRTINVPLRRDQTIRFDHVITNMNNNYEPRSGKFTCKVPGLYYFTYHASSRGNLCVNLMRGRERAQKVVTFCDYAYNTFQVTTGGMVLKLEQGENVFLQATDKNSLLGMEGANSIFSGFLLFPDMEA
T4 sequence (P02747 29-245 limits assumed, chain 3 of 3): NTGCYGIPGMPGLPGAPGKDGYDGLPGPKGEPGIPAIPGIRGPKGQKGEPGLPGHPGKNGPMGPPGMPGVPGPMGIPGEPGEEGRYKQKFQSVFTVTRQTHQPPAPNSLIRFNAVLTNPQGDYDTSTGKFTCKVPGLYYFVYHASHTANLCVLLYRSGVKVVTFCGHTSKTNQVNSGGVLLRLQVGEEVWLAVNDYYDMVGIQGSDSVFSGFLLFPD
Method: The antigen used was a human C1q protein (hC1q).
First, a 96-well maxisorp plate (Thermo fisher) was coated at 4° C. overnight with 50 μL of solutions containing each antibody prepared at 30, 10, 3, 1, 0.3, 0.1, and 0.03 μg/mL in PBS. Each well of the plate was washed with Wash buffer to remove the antibody not bound to the plate, and then the wells were blocked with 200 μL of Blocking/dilution Buffer at room temperature for 2 hours or longer. After the Blocking/dilution Buffer was removed from each well, hC1q (Calbiochem) prepared such that the final concentration was 3 μg/mL in Blocking/dilution Buffer was added at 50 μL per well. The plate was then allowed to stand at room temperature for 1 hour to allow hC1q to bind to the antibody within each well. After washing with Wash Buffer, 50 μL of an HRP-conjugated anti-hC1q antibody (AbDSerotec) diluted with Blocking/dilution Buffer was added to each well, and the plate was incubated while standing for 1 hour. After washing with Wash Buffer, TMB single solution (Invitrogen) was added. The color development reaction of the solution in each well was stopped by addition of Stop Buffer, and then the developed color was measured by absorbance at 450 nm and 690 nm.

T1 sequence (chain, as listed by the source limits assumed): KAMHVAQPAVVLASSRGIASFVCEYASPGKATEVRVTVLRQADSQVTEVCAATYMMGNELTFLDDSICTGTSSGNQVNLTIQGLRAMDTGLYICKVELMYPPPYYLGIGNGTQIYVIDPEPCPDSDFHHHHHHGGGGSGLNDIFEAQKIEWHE

B1: 04H1389-G1m/04L1615-k0MT (antibody, human IgG1, kappa)
heavy: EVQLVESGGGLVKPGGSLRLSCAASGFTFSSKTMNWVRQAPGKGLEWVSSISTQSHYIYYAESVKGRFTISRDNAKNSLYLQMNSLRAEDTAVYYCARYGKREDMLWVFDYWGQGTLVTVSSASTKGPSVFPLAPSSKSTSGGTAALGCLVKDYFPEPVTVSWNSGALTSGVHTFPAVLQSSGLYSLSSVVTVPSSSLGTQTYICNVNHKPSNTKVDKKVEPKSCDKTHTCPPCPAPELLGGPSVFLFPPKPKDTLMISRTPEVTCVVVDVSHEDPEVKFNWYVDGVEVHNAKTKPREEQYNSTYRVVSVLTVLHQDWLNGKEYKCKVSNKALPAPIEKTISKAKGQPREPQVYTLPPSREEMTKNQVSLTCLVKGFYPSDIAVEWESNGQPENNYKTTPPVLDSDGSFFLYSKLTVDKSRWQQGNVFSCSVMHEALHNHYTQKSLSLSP
light: DIVMTQSPLSLPVTPGEPASISCQGPSTGVGDYNYVHWYQQKPGQAPRLLIYFTSKKPSGVPDRFSGSGSGTDFTLKISRVEAEDVGVYYCQTYAAPLGPMFGQGTKLEIKRTVAAPSVFIFPPSDEQLKSGTASVVCLLNNFYPREAKVQWKVDNALQSGNSQESVTEQDSKDSTYSLSSTLTLSKADYEKHKVYACEVTHQGLSSPVTKSFNRGEC
- Kd [1]: 72 nM
- Kd [2]: 9.3 nM
- Kd [3]: 5 nM
- Kd [4]: 10 nM
- Kd [5]: 15 nM
- Kd [6]: 11 nM
- koff [6]: 0.0015 s⁻¹
- kon [6]: 130000 M⁻¹ s⁻¹
- Kd [7]: 17 nM
- koff [7]: 0.003 s⁻¹
- kon [7]: 180000 M⁻¹ s⁻¹
- Kd [8]: 110 nM
- Kd [9]: 58 nM
- Kd [10]: 160 nM
- Kd [11]: 55 nM
- koff [11]: 0.0097 s⁻¹
- kon [11]: 170000 M⁻¹ s⁻¹
- Kd [12]: 2000 nM
- Kd [13]: 21 nM
- Kd [14]: 12 nM
- Kd [15]: 26 nM

B2: 04H1654-G1m/04L1612-lam1 (antibody, human IgG1, lambda)
heavy: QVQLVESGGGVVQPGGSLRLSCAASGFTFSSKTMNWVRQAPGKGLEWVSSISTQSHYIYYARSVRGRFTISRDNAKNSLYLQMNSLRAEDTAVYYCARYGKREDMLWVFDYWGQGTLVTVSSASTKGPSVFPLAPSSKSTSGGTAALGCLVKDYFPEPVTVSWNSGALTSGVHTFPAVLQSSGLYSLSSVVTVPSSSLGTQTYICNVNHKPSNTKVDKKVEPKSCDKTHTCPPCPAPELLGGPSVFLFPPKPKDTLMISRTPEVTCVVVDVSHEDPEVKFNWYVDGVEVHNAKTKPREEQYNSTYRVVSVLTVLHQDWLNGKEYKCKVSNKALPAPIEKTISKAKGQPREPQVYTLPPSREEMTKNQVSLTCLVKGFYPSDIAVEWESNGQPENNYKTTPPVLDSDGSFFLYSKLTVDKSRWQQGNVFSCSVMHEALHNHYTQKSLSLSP
light: QSALTQPPSASGSPGQSVTISCEGPSTGVGDYTYVHWYQQHPGKAPKLMIYFTSKKPSGVPDRFSGSKSGNTASLTVSGLQAEDEADYYCQTYAAPLGPMFGGGTKLTVLGQPKAAPSVTLFPPSSEELQANKATLVCLISDFYPGAVTVAWKADSSPVKAGVETTTPSKQSNNKYAASSYLSLTPEQWKSHRSYSCQVTHEGSTVEKTVAPTECS
- Kd [1]: 200 nM
- Kd [2]: 21 nM
- Kd [3]: 11 nM
- Kd [4]: 18 nM
- Kd [5]: 33 nM
- Kd [6]: 36 nM
- koff [6]: 0.0027 s⁻¹
- kon [6]: 74000 M⁻¹ s⁻¹
- Kd [7]: 56 nM
- koff [7]: 0.005 s⁻¹
- kon [7]: 89000 M⁻¹ s⁻¹
- Kd [8]: 310 nM
- Kd [9]: 170 nM
- Kd [10]: 390 nM
- Kd [11]: 170 nM
- koff [11]: 0.016 s⁻¹
- kon [11]: 94000 M⁻¹ s⁻¹
- Kd [12]: 4800 nM
- Kd [13]: 54 nM
- Kd [14]: 30 nM
- Kd [15]: 48 nM

B4: 04H1389-mFa55/04L1615-mk1 (antibody, mouse IgG2a, kappa)
heavy: EVQLVESGGGLVKPGGSLRLSCAASGFTFSSKTMNWVRQAPGKGLEWVSSISTQSHYIYYAESVKGRFTISRDNAKNSLYLQMNSLRAEDTAVYYCARYGKREDMLWVFDYWGQGTLVTVSSAKTTAPSVYPLAPVCGDTTGSSVTLGCLVKGYFPEPVTLTWNSGSLSSGVHTFPAVLQSDLYTLSSSVTVTSSTWPSQSITCNVAHPASSTKVDKKIEPRGPTIKPCPPCKCPAPNLLGGPDVFIFPPKIKDVLMISLSPIVTCVVVDVSEDDPDVQISWFVNNVEVHTAQTQTHREDYNSTLRVVSALPIQHQDWMSGKEFKCKVNNKDLPAPIERTISKPKGSVRAPQVYVLPPPEEEMTKKQVTLTCMVTDFMPEDIYVEWTNNGKTELNYKNTEPVLDSDGSYFMYSKLRVEKKNWVERNSYSCSVVHEGLHNHHTTKSFSRTPGK
light: DIVMTQSPLSLPVTPGEPASISCQGPSTGVGDYNYVHWYQQKPGQAPRLLIYFTSKKPSGVPDRFSGSGSGTDFTLKISRVEAEDVGVYYCQTYAAPLGPMFGQGTKLEIKRADAAPTVSIFPPSSEQLTSGGASVVCFLNNFYPKDINVKWKIDGSERQNGVLNSWTDQDSKDSTYSMSSTLTLTKDEYERHNSYTCEATHKTSTSPIVKSFNRNEC
notes: Mouse constant regions mFa55 and mk1; also called SW1615-mFa55
- Kd [16]: 8.7 nM
- Kd [17]: 15 nM
- Kd [18]: 45 nM

B5: 04H1654-mFa55m2P1/04L1610-ml0r (antibody, mouse IgG2a)
heavy: B4 heavy with E1Q, L11V, K13Q, E62R, K65R, D404R
light: QSALTQPPSASGSPGQSVTISCEGPSTGVGDYNWVHWYQQHPGKAPKLMIYFTSKKPSGVPDRFSGSKSGNTASLTVSGLQAEDEADYYCQTYAAPLGPMFGGGTKLTVLGQPKSSPSVTLFPPSSEELETNKATLVCTITDFYPGVVTVDWKVDGTPVTQGMETTQPSKQSNNKYMASSYLTLTARAWERHSSYSCQVTHEGHTVEKSLSRADCS
notes: Mouse constant regions; also called one arm of SW1610-mFa55
- Kd [16]: 8.5 nM
- Kd [17]: 17 nM
- Kd [18]: 58 nM

Next, values leading:

- Kd [1]: 98 nM
- Kd [2]: 10 nM
- Kd [3]: 6.2 nM
- Kd [4]: 14 nM
- Kd [5]: 19 nM
- Kd [6]: 15 nM
- koff [6]: 0.0019 s⁻¹
- kon [6]: 130000 M⁻¹ s⁻¹
- Kd [7]: 25 nM
- koff [7]: 0.0043 s⁻¹
- kon [7]: 170000 M⁻¹ s⁻¹
- Kd [8]: 120 nM
- Kd [9]: 79 nM
- Kd [10]: 230 nM
- Kd [11]: 82 nM
- koff [11]: 0.014 s⁻¹
- kon [11]: 170000 M⁻¹ s⁻¹
- Kd [12]: 2200 nM
- Kd [13]: 26 nM
- Kd [14]: 16 nM
- Kd [15]: 37 nM
B3: 04H1656-G1m/04L1610-lam1 (antibody, human IgG1, lambda)
heavy: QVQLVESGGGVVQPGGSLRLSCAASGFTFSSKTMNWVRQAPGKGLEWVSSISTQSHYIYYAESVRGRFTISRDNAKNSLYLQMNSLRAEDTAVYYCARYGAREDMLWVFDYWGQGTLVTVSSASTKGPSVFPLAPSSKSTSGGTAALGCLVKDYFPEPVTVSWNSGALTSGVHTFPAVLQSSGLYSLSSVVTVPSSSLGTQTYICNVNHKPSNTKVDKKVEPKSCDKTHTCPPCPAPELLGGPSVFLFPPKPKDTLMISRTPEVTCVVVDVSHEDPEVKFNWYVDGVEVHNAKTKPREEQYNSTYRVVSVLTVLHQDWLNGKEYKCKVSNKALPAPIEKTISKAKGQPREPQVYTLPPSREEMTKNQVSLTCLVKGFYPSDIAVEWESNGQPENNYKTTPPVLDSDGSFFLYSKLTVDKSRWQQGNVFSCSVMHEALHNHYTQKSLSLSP
light: B2 light with T33N, Y34W

- Kd [16]: 7.4 nM
- Kd [17]: 13 nM
- Kd [18]: 47 nM
B6: 04H1656-mFa55m2N1/04L1610-ml0r (antibody, mouse IgG2a)
heavy: B4 heavy with E1Q, L11V, K13Q, K65R, K101A, K414E
light: B5 light
notes: Mouse constant regions; also called other arm of SW1610-mFa55

- Kd [16]: 12 nM
- Kd [17]: 29 nM
- Kd [18]: 94 nM
B7: 04H1654-mFa55m2P1/04L1612-ml0r (antibody, mouse IgG2a)
heavy: B4 heavy with E1Q, L11V, K13Q, E62R, K65R, D404R
light: B5 light with N33T, W34Y
notes: Mouse constant regions; also called one arm of SW1612-mFa55

- Kd [16]: 10 nM
- Kd [17]: 20 nM
- Kd [18]: 67 nM
B8: 04H1656-mFa55m2N1/04L1612-ml0r (antibody, mouse IgG2a)
heavy: B4 heavy with E1Q, L11V, K13Q, K65R, K101A, K414E
light: B5 light with N33T, W34Y
notes: Mouse constant regions; also called other arm of SW1612-mFa55

- binding result [19]: binds
B9: H240-Kn496/L73-k0//H240-Hl516/L73-k0 (antibody)
heavy 1: QDQLVQSGAEVKKPGASVKVSCKASGFNIKDTYIQWVRQAPGQGLEWMGRIDPLRKQTKYREKFEGRVTITADTSTNTAYMELSSLRSEDTAVYYCVRSGREFDYWGQGTLVTVSSASTKGPSVFPLAPSSKSTSGGTAALGCLVKDYFPEPVTVSWNSGALTSGVHTFPAVLQSSGLYSLSSVVTVPSSSLGTQTYICNVNHKPSNTKVDKKVEPKSCDKTHTCPPCPAPEFQWGPMVFLFPPKPKDVLMISRTPEVTCVVVDVSDEEPEVKFNWYVDGVEVHNAKTKPREEQYNATYRVVSVLPVLHQDWLNGKEYKCKVSNKALPAPIEKTISKAKGQPREPQVCTLPPSRDELTKNQVSLWCLVKGFYPSDIAVEWESNGQPENNYKTTPPVLDSDGSFFLYSKLTVDKSRWQQGNVFSCSVMHEALHNHYTQKSLSLSP
heavy 2: QDQLVQSGAEVKKPGASVKVSCKASGFNIKDTYIQWVRQAPGQGLEWMGRIDPLRKQTKYREKFEGRVTITADTSTNTAYMELSSLRSEDTAVYYCVRSGREFDYWGQGTLVTVSSASTKGPSVFPLAPSSKSTSGGTAALGCLVKDYFPEPVTVSWNSGALTSGVHTFPAVLQSSGLYSLSSVVTVPSSSLGTQTYICNVNHKPSNTKVDKKVEPKSCDKTHTCPPCPAPELLGGPSVFLFPPKPKDVLMISRTPEVTCVVVDVSHEEPEVKFNWYVDGVEVHNAKTKPREEQYNATYRVVSVLPVLHQDWLNGKEYKCKVSNDALPAPIEETISKAKGQPREPQVYTLPPSRCELTKNQVSLSCAVKGFYPSDIAVEWESNGQPENNYKTTPPVLDSDGSFFLVSKLTVDKSRWQQGNVFSCSVMHEALHNHYTQKSLSLSP
light: DIQMTQSPSSLSASVGDRVTITCRASQDIHKYIAWYQQKPGQAPRLLIQYTSTLQPGVPSRFSGSGSGTDYTFTISSLQPEDIATYYCLQYEQLRTFGGGTKVEIKRTVAAPSVFIFPPSDEQLKSGTASVVCLLNNFYPREAKVQWKVDNALQSGNSQESVTEQDSKDSTYSLSSTLTLSKADYEKHKVYACEVTHQGLSSPVTKSFNRGEC
notes: also called EGL-ART11; ART11; copies: 1 + 1 + 2
